According to IntAct's records for PubMed 28515320:

B1: Nectin-2 (Homo sapiens), Q92692 (parent)
chain: MARAAALLPSRSPPTPLLWPLLLLLLLETGAQDVRVQVLPEVRGQLGGTVELPCHLLPPVPGLYISLVTWQRPDAPANHQNVAAFHPKMGPSFPSPKPGSERLSFVSAKQSTGQDTEAELQDATLALHGLTVEDEGNYTCEFATFPKGSVRGMTWLRVIAKPKNQAEAQKVTFSQDPTTVALCISKEGRPPARISWLSSLDWEAKETQVSGTLAGTVTVTSRFTLVPSGRADGVTVTCKVEHESFEEPALIPVTLSVRYPPEVSISGYDDNWYLGRTDATLSCDVRSNPEPTGYDWSTTSGTFPTSAVAQGSQLVIHAVDSLFNTTFVCTVTNAVGMGRAEQVIFVRETPNTAGAGATGGIIGGIIAAIIATAVAATGILICRQQRKEQTLQGAEEDEDLEGPPSYKPPTPKAKLEAQEMPSQLFTLGASEHSPLKTPYFDAGASCTEQEMPRYHELPTLEERSGPLHPGATSLGSPIPVPPGPPAVEDVSLDLEDEEGEEEEEYLDKINPIYDALSYSSPSDSYQGKGFVMSRAMYV
partner: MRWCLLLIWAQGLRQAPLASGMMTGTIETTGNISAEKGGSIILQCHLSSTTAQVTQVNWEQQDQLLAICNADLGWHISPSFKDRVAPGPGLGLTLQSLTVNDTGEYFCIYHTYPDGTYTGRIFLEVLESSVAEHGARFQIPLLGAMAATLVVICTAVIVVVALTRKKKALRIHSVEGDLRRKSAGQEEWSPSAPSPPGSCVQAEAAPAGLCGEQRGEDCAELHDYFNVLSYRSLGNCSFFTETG

Variants of: B1
Conditions: with tigit_human TIGIT

| Variant | effect of a mutation on the interaction |
| --- | --- |
| E141A | with no effect |
| L67Q | decreasing interaction strength |
| L67A | decreasing interaction strength |
| F145A | disrupting interaction strength |
| A83R | decreasing interaction strength |
| A83V | decreasing interaction strength |
| H86A | decreasing interaction strength |
| E101A | with no effect |
| M89A | decreasing interaction strength |
| G90A | decreasing interaction strength |
